Here are results for 2 substances from PMC3401516.

Assay [1] concerns the target ERK2 (Rattus norvegicus) (UniProt P63086). Particulars: cited from earlier work.
Assay [2] addresses activated His6-tagged ERK2 (cleavable His6-tag construct, tag not cleaved) (Rattus norvegicus) (UniProt P63086). Put plainly: SEC-MALS. On the technique in general: Size exclusion chromatography separates by hydrodynamic size, large species first.

On to ERK2 (from UniProt P63086), for which the equilibrium dissociation constant (Kd) in assay [1] is 7 nM.
As for “activated His6-tagged ERK2 (cleavable His6-tag construct, tag not cleaved) (from UniProt P63086 1-358) (enzyme)”, in assay [2], the percent dimer came out at 30% and the stoichiometry N came to 2.

As a reminder, the Kd is the free concentration of one partner at which half of the binding sites on the other are occupied at equilibrium, for simple one-to-one binding. As a reminder, the stoichiometry N is the number of molecules, sites or subunits per partner or assembly.
